Experimental findings from paper PMC10359594 are described below.

Where two headings read alike, the source gives them in different places.

In series [1] the target is T1, SAMHD1 WT (Homo sapiens, UniProt Q9Y3Z3 1-626). The series is described as follows: fluorescence anisotropy. On the technique in general: In fluorescence polarisation assays a small probe gives low polarisation when free and higher when bound to something large.
The target of series [2] is T1, SAMHD1 WT. The series is described as follows: fluorescence anisotropy. This is another data set of the same source.
The target of series [3] is T2, SAMHD1 113-626 (HD domain) (Homo sapiens, UniProt Q9Y3Z3 113-626). The series is described as follows: crystal structure.
T2 sequence (Q9Y3Z3 113-626): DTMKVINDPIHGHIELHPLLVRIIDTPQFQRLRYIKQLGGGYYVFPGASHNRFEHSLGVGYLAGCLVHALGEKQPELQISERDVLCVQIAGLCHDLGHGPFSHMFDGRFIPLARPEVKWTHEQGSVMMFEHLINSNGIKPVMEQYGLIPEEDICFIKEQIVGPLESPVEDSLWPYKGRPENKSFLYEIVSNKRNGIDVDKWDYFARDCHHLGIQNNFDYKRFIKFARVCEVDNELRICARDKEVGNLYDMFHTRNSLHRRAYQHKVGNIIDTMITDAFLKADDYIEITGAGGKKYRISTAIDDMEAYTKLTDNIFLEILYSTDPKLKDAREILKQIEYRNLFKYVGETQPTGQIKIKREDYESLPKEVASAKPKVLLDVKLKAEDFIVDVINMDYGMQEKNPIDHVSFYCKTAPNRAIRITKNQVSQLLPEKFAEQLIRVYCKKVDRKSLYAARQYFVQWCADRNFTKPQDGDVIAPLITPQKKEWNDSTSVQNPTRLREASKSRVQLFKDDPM
A further series has as its target SAMHD1 113-626 R451E (Homo sapiens, UniProt Q9Y3Z3 113-626, R451E). The series is described as follows: fluorescence anisotropy.
The next series addresses SAMHD1 C522A (Homo sapiens, UniProt Q9Y3Z3 1-626, C522A). The series is described as follows: fluorescence anisotropy.
Series [4] concerns the target T2, SAMHD1 113-626 (HD domain). The series is described as follows: crystal structure. The source holds these as a separate data set.

T1 sequence (Q9Y3Z3 whole entry): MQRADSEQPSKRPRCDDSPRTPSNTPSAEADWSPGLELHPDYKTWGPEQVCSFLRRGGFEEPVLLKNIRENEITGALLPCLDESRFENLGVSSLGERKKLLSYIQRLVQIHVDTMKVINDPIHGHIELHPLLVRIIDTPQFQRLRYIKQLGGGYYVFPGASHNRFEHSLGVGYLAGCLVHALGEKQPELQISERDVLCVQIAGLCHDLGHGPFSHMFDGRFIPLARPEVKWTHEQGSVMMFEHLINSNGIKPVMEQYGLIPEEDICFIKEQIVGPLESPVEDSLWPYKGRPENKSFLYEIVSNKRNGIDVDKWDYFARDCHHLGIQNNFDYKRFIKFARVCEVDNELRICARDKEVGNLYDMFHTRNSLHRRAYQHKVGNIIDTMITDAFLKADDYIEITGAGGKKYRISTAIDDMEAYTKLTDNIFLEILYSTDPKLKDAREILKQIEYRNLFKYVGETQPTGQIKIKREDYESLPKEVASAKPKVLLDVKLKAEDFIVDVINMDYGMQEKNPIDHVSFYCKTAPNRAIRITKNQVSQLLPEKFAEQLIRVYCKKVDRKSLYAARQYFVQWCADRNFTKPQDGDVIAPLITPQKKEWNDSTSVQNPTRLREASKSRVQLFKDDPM
SAMHD1 113-626 R451E, sequence (Q9Y3Z3 113-626 R451E): as the sequence (Q9Y3Z3 113-626) above, with R339E counted along it
SAMHD1 C522A, sequence (Q9Y3Z3 whole entry C522A, the tested form may be a part): as the sequence (Q9Y3Z3 whole entry) above, with C522A counted along it

B1: 3' overhang (mixed)
DNA 1: TGGAGAATCCCGGTGCCGAGGCCGCTCAATTGGTCGTAGACAGCTCTAGCACCGCTT
DNA 2: TGAGCGGCCTCGGCACCGGGATTCTCCA
B1: in the series with SAMHD1 WT [1], the binding result is “binds”.

B2: 3' fork (mixed)
DNA 1: TGGAGAATCCCGGTGCCGAGGCCGCTCAATTGGTCGTAGACAGCTCTAGCACCGCTT
DNA 2: AATTGTGAGCGGCCTCGGCACCGGGATTCTCCA
As to B2, the binding result in the series with SAMHD1 WT [2] is reported as “binds”.

Take CATTG (ssDNA) [CATTG 5mer]: in series [3], the binding result is “binds”.

GACAGTGTTGAGACAGGACCAGACAGGTAG (ssDNA) [ssDNA 30mer]: the binding result with SAMHD1 113-626 R451E is given as “no binding”.

B3: dsDNA 30mer (dsDNA)
DNA 1: GACAGTGTTGAGACAGGACCAGACAGGTAG
DNA 2: CTACCTGTCTGGTCCTGTCTCAACACTGTC
For the molecule B3, the binding result with SAMHD1 C522A is listed as “no binding”.

In the case of CATGT (ssDNA) [CATGT 5mer], the binding result in series [4] was “binds”.
